# Test results taken from the Immune Epitope Database (IEDB).
# Assays:
# HLA-A*31:01 = experiment: IEDB peptide-MHC binding, purified MHC/competitive/radioactivity; filed as Kd, often an IC50 or EC50 that approximates it; ≥ and ≤ were set here for values at or beyond the usual limits of such assays; details: source organism: Dengue virus 3 Martinique/1243/1999
# HLA-B*58:01 [1] = experiment: as above
# HLA-B*15:01 = experiment: IEDB peptide-MHC binding, purified MHC/competitive/fluorescence; filed as Kd, often an IC50 or EC50 that approximates it; ≥ and ≤ were set here for values at or beyond the usual limits of such assays
# HLA-B*40:01 = experiment: as above; details: source organism: Salmonella enterica subsp. enterica serovar Typhi
# HLA-A*02:01 [2] = experiment: IEDB peptide-MHC binding, purified MHC/competitive/radioactivity; ≥ and ≤ were set here for values at or beyond the usual limits of such assays; details: source organism: Influenza A virus (A/Alaska/6/1977(H3N2))
# HLA-B*57:01 [3] = experiment: IEDB peptide-MHC binding, purified MHC/competitive/radioactivity; filed as Kd, often an IC50 or EC50 that approximates it; ≥ and ≤ were set here for values at or beyond the usual limits of such assays; details: source organism: Dengue virus 3 Martinique/1243/1999
# HLA-A*32:01 = experiment: as above; details: source organism: Dengue virus 3 Martinique/1243/1999
# HLA-B*07:02 = experiment: IEDB peptide-MHC binding, purified MHC/competitive/fluorescence; ≥ and ≤ were set here for values at or beyond the usual limits of such assays
# HLA-C*05:01 = experiment: IEDB peptide-MHC binding, purified MHC/direct/fluorescence; filed as Kd, often an IC50 or EC50 that approximates it; ≥ and ≤ were set here for values at or beyond the usual limits of such assays; details: source organism: Reston ebolavirus - Reston (1989)
# HLA-A*01:01 [4] = experiment: as above; details: source organism: Reston ebolavirus - Reston
# HLA-B*57:01 [5] = experiment: IEDB peptide-MHC binding, purified MHC/competitive/fluorescence; filed as Kd, often an IC50 or EC50 that approximates it; ≥ and ≤ were set here for values at or beyond the usual limits of such assays; details: source organism: Reston ebolavirus - Reston (1989)
# HLA-B*46:01 = experiment: as above
# HLA-B*51:01 = experiment: as above
# HLA-B*27:03 = experiment: as above
# HLA-B*15:17 = experiment: as above; details: source organism: Reston ebolavirus - Reston (1989)
# HLA-A*26:01 [6] = experiment: as above
# HLA-A*02:01 [7] = experiment: as above
# HLA-B*18:01 = experiment: as above
# HLA-B*39:01 = experiment: as above
# HLA-A*02:12 = experiment: IEDB peptide-MHC binding, purified MHC/direct/fluorescence; filed as Kd, often an IC50 or EC50 that approximates it; ≥ and ≤ were set here for values at or beyond the usual limits of such assays; details: source organism: Choclo virus
# HLA-A*03:01 [8] = experiment: as above; details: source organism: Choclo virus
# HLA-A*68:02 = experiment: as above; details: source organism: Choclo virus
# HLA-A*02:19 = experiment: as above; details: source organism: Choclo virus
# HLA-A*02:16 = experiment: as above; details: source organism: Choclo virus
# HLA-B*58:01 [9] = experiment: IEDB peptide-MHC binding, purified MHC/competitive/fluorescence; filed as Kd, often an IC50 or EC50 that approximates it; ≥ and ≤ were set here for values at or beyond the usual limits of such assays; details: source organism: Orthohantavirus sinnombreense
# HLA-A*69:01 = experiment: as above; details: source organism: Orthohantavirus sinnombreense
# HLA-A*24:03 = experiment: as above; details: source organism: Escherichia coli APEC O1
# HLA-A*30:02 = experiment: IEDB peptide-MHC binding, purified MHC/competitive/radioactivity; filed as Kd, often an IC50 or EC50 that approximates it; ≥ and ≤ were set here for values at or beyond the usual limits of such assays; details: source organism: Dengue virus 2 Jamaica/1409/1983
# HLA-A*26:01 [10] = experiment: as above; details: source organism: Dengue virus 2 Jamaica/1409/1983
# HLA-A*01:01 [11] = experiment: as above; details: source organism: Dengue virus 2 Jamaica/1409/1983
# HLA-A*03:01 [12] = experiment: IEDB peptide-MHC binding, purified MHC/competitive/fluorescence; ≥ and ≤ were set here for values at or beyond the usual limits of such assays; details: source organism: Vaccinia virus Copenhagen
# HLA-A*24:02 = experiment: as above; details: source organism: Vaccinia virus Copenhagen
# [13] = source organism: Dengue virus 3 Martinique/1243/1999
# [14] = source organism: Reston ebolavirus - Reston (1989)
# [15] = source organism: Orthohantavirus sinnombreense
sequence,measurement,setting,value
AASAAQRRGR,Kd,HLA-A*31:01,0.165 µM
same,Kd,HLA-B*58:01 [1]; [13],0.0187 µM
AELFVAHYM,Kd,HLA-B*15:01; source organism: Salmonella enterica subsp. enterica serovar Typhi,≥ 20 µM
same,Kd,HLA-B*40:01,0.0108 µM
AIMEKNIML,IC50,HLA-A*02:01 [2],0.104 µM
ATLLVWHTW,Kd,HLA-B*57:01 [3],0.0021 µM
same,Kd,HLA-B*58:01 [1]; [13],0.00169 µM
same,Kd,HLA-A*32:01,0.00268 µM
EPVVFSTSD,IC50,HLA-B*07:02; source organism: Zaire ebolavirus,≥ 144 µM
FSDLCNFLI,Kd,HLA-C*05:01,0.009 µM
same,Kd,HLA-A*01:01 [4],0.153 µM
same,Kd,HLA-B*15:01; [14],≥ 20 µM
same,Kd,HLA-B*57:01 [5],≥ 20 µM
same,Kd,HLA-B*46:01; [14],≥ 20 µM
same,Kd,HLA-B*51:01; [14],≥ 20 µM
same,Kd,HLA-B*27:03; [14],≥ 20 µM
same,Kd,HLA-B*15:17,≥ 20 µM
same,Kd,HLA-A*26:01 [6]; [14],≥ 20 µM
same,Kd,HLA-A*02:01 [7]; [14],≥ 20 µM
same,Kd,HLA-B*18:01; [14],≥ 20 µM
same,Kd,HLA-B*39:01; [14],≥ 20 µM
GSFRKICGF,Kd,HLA-A*02:12,≥ 20 µM
same,Kd,HLA-A*03:01 [8],≥ 20 µM
same,Kd,HLA-A*68:02,≥ 20 µM
same,Kd,HLA-A*02:19,≥ 20 µM
same,Kd,HLA-A*02:16,≥ 20 µM
same,Kd,HLA-B*15:01; [15],≥ 20 µM
same,Kd,HLA-B*58:01 [9],0.251 µM
same,Kd,HLA-B*46:01; [15],≥ 20 µM
same,Kd,HLA-B*51:01; [15],≥ 20 µM
same,Kd,HLA-B*27:03; [15],≥ 20 µM
same,Kd,HLA-A*26:01 [6]; [15],≥ 20 µM
same,Kd,HLA-A*02:01 [7]; [15],≥ 20 µM
same,Kd,HLA-B*18:01; [15],≥ 20 µM
same,Kd,HLA-B*39:01; [15],≥ 20 µM
same,Kd,HLA-A*69:01,≥ 20 µM
HYGTEGQEF,Kd,HLA-A*24:03,0.0029 µM
IPSATKRWG,IC50,HLA-B*07:02; source organism: Sudan ebolavirus,49.6 µM
ITASILLWY,Kd,HLA-A*30:02,0.55 µM
same,Kd,HLA-B*58:01 [1]; source organism: Dengue virus 2 Jamaica/1409/1983,0.0028 µM
same,Kd,HLA-A*26:01 [10],0.00566 µM
same,Kd,HLA-A*01:01 [11],0.0472 µM
IVFYRSGTE,IC50,HLA-A*03:01 [12],≥ 85.9 µM
same,IC50,HLA-B*07:02; source organism: Vaccinia virus Copenhagen,≥ 223 µM
same,IC50,HLA-A*24:02,≥ 6580 µM
